Results as given in publication PMC6842113 (Neuron, 2019).

B1: Stg_CT WT (domain or fragment, mouse, UniProt O88602 203-323, looked up)
chain: DRHKQLRATARATDYLQASAITRIPSYRYRYQRRSRSSSRSTEPSHSRDASPVGVKGFNTLPSTEISMYTLSRDPLKAATTPTATYNSDRDNSFLQVHNCIQKDSKDSLHANTANRRTTPV
B2: PSD-95 PDZ2 (domain or fragment, UniProt P78352-1 155-247, looked up)
chain: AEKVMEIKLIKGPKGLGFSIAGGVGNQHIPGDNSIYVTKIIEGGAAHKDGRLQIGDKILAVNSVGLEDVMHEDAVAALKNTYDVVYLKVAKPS
B3: Stg_CT Δ4 (domain or fragment, mouse, UniProt O88602 203-319, looked up)
chain: DRHKQLRATARATDYLQASAITRIPSYRYRYQRRSRSSSRSTEPSHSRDASPVGVKGFNTLPSTEISMYTLSRDPLKAATTPTATYNSDRDNSFLQVHNCIQKDSKDSLHANTANRR

Tests used:
PSD-95 PSG = PSD-95 PSG (UniProt P78352-1 309-724); assay: ITC
Stg_CT WT = target: B1; assay: ITC
PSD-95 NPDZ12 = PSD-95 NPDZ12 (UniProt P78352-1 1-247); assay: NMR titration

Binder: B1
- Kd (PSD-95 PSG): ~5.3 µM

Binder: B2
- binding result (Stg_CT WT): binds

Binder: B3
- binding result (PSD-95 NPDZ12): binds
